Patent JPH07265077A (dated 1995)

Target: T1, Hemagglutinin (HA) of human influenza A virus A2/Aichi/2/68 (H3N2サブタイプ) (human influenza A virus A2/Aichi/2/68 …, UniProt P03437 17-566)
T1 construct: whole, on cells; also called A/Aichi/2/68; A2/Aichi/2/68

B1: モノクローナル抗体C179 (monoclonal antibody C179) (antibody, V domains shown)
VH: EVKLVESGGGLVQPGGSLRLSCGTSGFTLTDDYMTWVRQPPGKALEWLGFIRDRANGYTTEYSASVKGRFTISRDNSQSIVYLQMNTLRVEDSATYYCARPKGYFPYAMDYWGQGT
VL: DIQMTQSPASQSASLGESVTITCLASQTIGTWLAWYQQKPGKSPQLLIYAATSLADGVPSRFSGSGSGTKFSFKISSLQAEDFVSYYCQQLYSTPWTF
notes: also called antibody of Hybridoma C179 (FERM BP-4517)
Does B1 bind?
Result: no binding
